Assay in all cases: fluorescence polarisation; fluorescence anisotropy; Rtt103p CID titrated into 10 nM N-terminally FAM-labelled CTD peptide; 10°C; 35 mM KH2PO4, 100 mM KCl, pH 6.8; 1:1 model with non-specific binding (DynaFit)
Common to all, as to conditions: both partners purified
(In fluorescence polarisation assays a small probe gives low polarisation when free and higher when bound to something large.)

For assay [1], the target named is T1, Rtt103p CTD-interacting domain (CID) (3-131-6xHIS) (yeast, UniProt Q05543 3-131).
T1 construct: Used unlabelled for fluorescence anisotropy and the 13C-HSQC titration, 15N-labelled for the TROSY titration and 15N,13C-labelled for the structure; also called Rtt103p CID; Rtt103 CID
T1 sequence (looked up): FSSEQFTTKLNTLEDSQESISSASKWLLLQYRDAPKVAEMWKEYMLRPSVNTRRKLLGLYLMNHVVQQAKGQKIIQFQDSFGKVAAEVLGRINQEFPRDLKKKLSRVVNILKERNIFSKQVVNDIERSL

In assay [2] the target is T2, Rtt103p CID Arg108Asn mutant (yeast, UniProt Q05543 3-131, Arg108Asn).
T2 sequence (looked up): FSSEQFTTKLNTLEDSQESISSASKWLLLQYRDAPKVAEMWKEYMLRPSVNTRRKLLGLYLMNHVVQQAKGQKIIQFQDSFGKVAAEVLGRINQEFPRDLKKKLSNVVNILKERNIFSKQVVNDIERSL

The target of assay [3] is T3, Rtt103p CID Lys72Glu mutant (yeast, UniProt Q05543 3-131, Lys72Glu).
T3 sequence (looked up): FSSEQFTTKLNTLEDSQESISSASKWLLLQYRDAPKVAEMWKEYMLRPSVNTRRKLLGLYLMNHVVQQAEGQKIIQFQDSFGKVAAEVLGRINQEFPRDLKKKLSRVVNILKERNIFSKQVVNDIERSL

Assay [4] has as its target T4, Rtt103p CID Arg116Glu mutant (yeast, UniProt Q05543 3-131, Arg116Glu).
T4 sequence (looked up): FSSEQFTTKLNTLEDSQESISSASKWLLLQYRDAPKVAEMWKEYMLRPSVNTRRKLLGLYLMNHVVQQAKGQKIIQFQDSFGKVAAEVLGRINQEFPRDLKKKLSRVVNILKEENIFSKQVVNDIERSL

Non-standard residues stand in square brackets, D forms with d. No end group written: not given here. pT = C[C@@H](OP(=O)(O)O)[C@H](N)C(=O)O; pS = N[C@@H](COP(=O)(O)O)C(=O)O; FAM = 5,6-carboxyfluorescein

B1: FAM-PSYSP(pT)SPSYS (peptide)
peptide: {FAM}-PSYSP[pT]SPSYS
notes: consensus heptad repeats of the C-terminal domain of the largest subunit of RNA polymerase II (Rpb1); residues named by heptad position and repeat letter (P6a ... S2c); source: synthetic peptide (JPT, Berlin, or Clonestar, Brno)
B1: the Kd in assay [1] was 18 µM.

B2: FAM-PSY(pS)PTSPSYSPTSPS (peptide)
peptide: {FAM}-PSY[pS]PTSPSYSPTSPS
notes: consensus heptad repeats (Tyr1-Ser2-Pro3-Thr4-Ser5-Pro6-Ser7) of the C-terminal domain of the largest subunit of RNA polymerase II (Rpb1); residues named by heptad position and repeat letter (P6a ... S7c); also called pSer2-CTD; FAM-pSer2 CTD; source: synthetic peptide (JPT, Berlin, or Clonestar, Brno)
As for B2, in assay [2], the Kd is 44 µM. In other words, the double-digit micromolar range.

B3: FAM-PSYSP(pT)SPSYSPTSPS (peptide)
peptide: {FAM}-PSYSP[pT]SPSYSPTSPS
notes: consensus heptad repeats of the C-terminal domain of the largest subunit of RNA polymerase II (Rpb1); residues named by heptad position and repeat letter (P6a ... S7c); also called pThr4-CTD; FAM-pThr4 CTD; source: synthetic peptide (JPT, Berlin, or Clonestar, Brno)
Consider B3, for which the Kd came out at 38 µM in assay [2], 54 µM in assay [3] and 107 µM in assay [4].

The term Kd denotes the concentration at which binding is half-saturated.

These data come from paper PMC5452035, “Structural insight into recognition of phosphorylated threonine‐4 of RNA polymerase II C‐terminal domain by Rtt103p” (EMBO Reports, 2017).
